How the values were obtained:
DNA-PKcs;Ku70;Ku80 = DNA-PKcs;Ku70;Ku80 (human? (HeLa cells);human?;human?, UniProt P78527;P12956;P13010 1-4128;1-609;1-732, ||); experiment: cryo-EM structure
DNA-PKcs = DNA-PKcs (human? (HeLa cells), UniProt P78527 1-4128); experiment: cryo-EM structure
DNA-PKcs, sequence (P78527 whole entry): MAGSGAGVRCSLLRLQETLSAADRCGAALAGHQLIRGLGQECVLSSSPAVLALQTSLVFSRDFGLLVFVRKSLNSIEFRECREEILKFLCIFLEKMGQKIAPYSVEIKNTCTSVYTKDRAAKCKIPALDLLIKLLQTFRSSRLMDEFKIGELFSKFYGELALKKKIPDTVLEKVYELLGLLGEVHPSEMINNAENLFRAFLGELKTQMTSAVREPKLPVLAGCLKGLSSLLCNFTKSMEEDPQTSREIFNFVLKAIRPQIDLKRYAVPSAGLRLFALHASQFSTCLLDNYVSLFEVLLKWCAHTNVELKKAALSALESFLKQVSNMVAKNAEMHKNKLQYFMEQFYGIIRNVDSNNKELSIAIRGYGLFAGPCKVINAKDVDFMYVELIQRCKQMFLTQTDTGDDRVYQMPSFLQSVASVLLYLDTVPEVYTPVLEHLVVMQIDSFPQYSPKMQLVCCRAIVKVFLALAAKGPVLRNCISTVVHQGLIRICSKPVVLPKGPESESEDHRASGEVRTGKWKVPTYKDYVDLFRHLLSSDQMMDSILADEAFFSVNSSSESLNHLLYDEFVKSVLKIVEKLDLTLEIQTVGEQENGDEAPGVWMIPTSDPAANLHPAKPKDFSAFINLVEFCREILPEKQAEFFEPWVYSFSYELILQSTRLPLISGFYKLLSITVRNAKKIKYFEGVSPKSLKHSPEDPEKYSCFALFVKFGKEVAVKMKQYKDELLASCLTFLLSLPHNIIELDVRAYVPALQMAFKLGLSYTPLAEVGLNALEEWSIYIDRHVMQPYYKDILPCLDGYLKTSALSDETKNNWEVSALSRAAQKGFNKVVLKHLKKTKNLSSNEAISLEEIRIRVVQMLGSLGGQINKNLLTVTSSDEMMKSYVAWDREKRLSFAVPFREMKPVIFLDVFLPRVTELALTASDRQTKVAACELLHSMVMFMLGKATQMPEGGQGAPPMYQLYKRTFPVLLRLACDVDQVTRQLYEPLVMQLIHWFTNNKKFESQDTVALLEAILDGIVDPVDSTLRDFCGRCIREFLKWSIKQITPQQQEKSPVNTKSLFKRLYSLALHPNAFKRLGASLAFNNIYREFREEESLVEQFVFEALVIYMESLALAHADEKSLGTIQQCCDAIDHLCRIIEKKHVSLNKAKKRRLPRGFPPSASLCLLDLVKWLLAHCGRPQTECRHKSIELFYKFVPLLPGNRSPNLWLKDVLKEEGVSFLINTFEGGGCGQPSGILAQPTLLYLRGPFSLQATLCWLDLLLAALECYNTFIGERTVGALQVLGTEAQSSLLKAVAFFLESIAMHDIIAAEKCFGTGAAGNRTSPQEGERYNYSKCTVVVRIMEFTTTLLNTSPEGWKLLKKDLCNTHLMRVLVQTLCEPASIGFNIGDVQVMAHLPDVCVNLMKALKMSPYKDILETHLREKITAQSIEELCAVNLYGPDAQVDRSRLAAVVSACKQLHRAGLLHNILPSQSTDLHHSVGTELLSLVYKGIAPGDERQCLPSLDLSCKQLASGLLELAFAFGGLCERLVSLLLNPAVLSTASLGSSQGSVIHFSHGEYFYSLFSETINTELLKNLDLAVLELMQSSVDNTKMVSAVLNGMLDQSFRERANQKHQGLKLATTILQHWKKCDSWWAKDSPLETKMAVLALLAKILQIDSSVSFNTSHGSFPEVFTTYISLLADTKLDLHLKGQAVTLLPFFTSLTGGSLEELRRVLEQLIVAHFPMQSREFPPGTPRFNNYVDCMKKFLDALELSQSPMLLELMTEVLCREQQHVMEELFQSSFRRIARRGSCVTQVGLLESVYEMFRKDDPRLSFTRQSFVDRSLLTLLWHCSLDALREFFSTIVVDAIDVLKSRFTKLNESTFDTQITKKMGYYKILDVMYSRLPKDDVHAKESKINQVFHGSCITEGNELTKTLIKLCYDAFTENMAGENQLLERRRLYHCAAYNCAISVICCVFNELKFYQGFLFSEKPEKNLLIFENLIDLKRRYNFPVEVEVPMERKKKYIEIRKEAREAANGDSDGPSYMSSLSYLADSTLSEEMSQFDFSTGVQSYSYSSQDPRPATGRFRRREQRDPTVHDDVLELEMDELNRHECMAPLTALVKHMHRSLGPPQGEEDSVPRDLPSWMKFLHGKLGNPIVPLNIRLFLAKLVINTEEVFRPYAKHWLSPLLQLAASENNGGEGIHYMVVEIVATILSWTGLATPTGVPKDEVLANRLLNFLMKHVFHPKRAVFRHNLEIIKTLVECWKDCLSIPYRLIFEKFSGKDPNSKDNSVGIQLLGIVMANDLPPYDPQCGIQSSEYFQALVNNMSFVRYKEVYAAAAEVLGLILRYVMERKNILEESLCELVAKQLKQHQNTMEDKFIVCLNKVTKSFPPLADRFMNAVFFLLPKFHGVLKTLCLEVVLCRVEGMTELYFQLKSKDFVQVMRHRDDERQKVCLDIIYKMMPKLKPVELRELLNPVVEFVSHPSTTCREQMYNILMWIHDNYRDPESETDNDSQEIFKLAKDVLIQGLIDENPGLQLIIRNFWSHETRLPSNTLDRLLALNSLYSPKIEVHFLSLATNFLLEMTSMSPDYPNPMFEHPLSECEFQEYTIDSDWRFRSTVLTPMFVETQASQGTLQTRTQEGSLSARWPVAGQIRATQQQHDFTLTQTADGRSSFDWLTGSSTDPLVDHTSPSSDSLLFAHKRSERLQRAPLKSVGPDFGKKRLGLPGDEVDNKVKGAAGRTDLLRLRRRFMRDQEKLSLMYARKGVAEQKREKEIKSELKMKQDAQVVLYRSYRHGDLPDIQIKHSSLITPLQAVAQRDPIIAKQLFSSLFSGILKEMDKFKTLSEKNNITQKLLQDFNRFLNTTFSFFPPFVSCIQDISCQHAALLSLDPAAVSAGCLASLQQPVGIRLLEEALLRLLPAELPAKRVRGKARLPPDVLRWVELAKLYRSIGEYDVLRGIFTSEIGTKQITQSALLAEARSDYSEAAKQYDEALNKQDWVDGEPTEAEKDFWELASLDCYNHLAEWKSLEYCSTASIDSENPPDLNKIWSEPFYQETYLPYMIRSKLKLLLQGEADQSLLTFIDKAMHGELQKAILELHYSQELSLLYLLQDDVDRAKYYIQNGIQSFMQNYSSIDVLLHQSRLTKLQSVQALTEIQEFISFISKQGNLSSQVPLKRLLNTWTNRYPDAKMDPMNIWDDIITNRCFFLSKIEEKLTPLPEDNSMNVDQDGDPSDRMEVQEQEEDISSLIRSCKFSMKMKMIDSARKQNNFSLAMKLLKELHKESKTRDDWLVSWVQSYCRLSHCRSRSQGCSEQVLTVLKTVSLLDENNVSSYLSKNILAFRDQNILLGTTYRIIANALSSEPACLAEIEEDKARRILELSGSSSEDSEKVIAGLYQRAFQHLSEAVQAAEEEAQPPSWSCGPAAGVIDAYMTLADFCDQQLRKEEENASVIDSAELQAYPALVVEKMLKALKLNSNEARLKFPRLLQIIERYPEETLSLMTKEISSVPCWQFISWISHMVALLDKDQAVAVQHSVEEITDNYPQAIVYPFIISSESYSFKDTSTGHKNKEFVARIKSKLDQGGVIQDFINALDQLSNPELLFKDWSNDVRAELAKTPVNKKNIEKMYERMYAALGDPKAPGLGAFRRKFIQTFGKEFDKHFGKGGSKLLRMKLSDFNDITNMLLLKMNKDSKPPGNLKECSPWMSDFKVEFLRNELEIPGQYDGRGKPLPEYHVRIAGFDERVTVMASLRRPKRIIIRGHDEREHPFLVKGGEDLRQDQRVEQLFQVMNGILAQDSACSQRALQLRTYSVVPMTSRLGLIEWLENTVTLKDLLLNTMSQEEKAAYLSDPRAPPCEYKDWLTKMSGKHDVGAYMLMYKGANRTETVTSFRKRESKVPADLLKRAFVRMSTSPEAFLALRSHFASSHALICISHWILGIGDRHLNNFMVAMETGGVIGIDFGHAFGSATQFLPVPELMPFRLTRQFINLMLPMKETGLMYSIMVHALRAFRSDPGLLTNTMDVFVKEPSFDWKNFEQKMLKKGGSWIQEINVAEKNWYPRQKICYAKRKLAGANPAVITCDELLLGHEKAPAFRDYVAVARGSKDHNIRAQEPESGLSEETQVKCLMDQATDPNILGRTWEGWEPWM

B1: 40 bp blunt DNA with two internal nicks (dsDNA)
DNA 1: GCATGCTCTACTGCTTCGATATCG
DNA 2: AAGCAGTAGAGCATGC
DNA 3: GCATGCTCTACTGCTTCGATATCG
DNA 4: AAGCAGTAGAGCATGC
binding result (DNA-PKcs;Ku70;Ku80): binds | binding result (DNA-PKcs): binds

Reference: article doi:10.1101/2020.10.19.346148
